Laboratory results published in patent US20150086562A1 (BIOATLA, published 2015).
Changes are numbered by the printed parent chain.

B1: VM1006 (antibody, V domains shown)
VH: QVQLVQSGAEVKKPGASVKVSCKASGYVFTSYWLHWIRQSPSRGLEWLGYINPRNDYTEYNRIFKGRFVFSLDTSVSTAYLQICSLKAEDTAVYYCARRGITTFYWGQG
VL: DIQMTQSPSSLSASVGDRVTITCKSSQSVLYSAVEKNYLAWYQQKPGKAPKLLIYWASTRERGIPDRFSGSGSGTDFTLTISRLEPEDFAVYYCKQYLSSWTFGQG
notes: Humanized antibody with human constant region; also called anti-CD22 Mab clone VM1006
B2: VM1011 (antibody, V domains shown)
VH: QVQLQESGPGLVKPSQTLSLTCTVSGYVFTSYWLHWIRQPPGKGLEWIGYINPRNDYTEYNRIFKGRVTITADKSTSTAYMELSSLRSEDTAVYYCARRGITTFYWGQG
VL: EIVLTQSPATLSLSPGERATLSCKSSQSVLYSAVEKNYLAWYQQKPGQAPRLLIYWASTRERGIPDRFSGSGSGTDFTLTISRLEPEDFAVYYCKQYLSSWTFGQG
notes: Humanized antibody with human constant region; also called anti-CD22 Mab clone VM1011
B3: VM1007 (antibody, V domains shown)
VH: QVQLVQSGAEVKKPGASVKVSCKASGYVFTSYWLHWVRQARGQRLEWIGYINPRNDYTEYNRIFKGRVTITADKSTSTAYMELSSLRSEDTAVYYCARRGITTFYWGQG
VL: B1 VL with D1A, M4L, I64V, D66S, L79F, R83S, P86A, F89A, V91T
notes: Humanized antibody with human constant region; also called anti-CD22 Mab clone VM1007
B4: VM1000 (antibody, V domains shown)
VH: QVQLVQSGAEVKKPGASVKVSCKASGYVFTSYWLHWIRQSPSRGLEWLGYINPRNDYTEYNRIFKGRLTISKDTSKNQVVLTMTNMDPVDTATYYCARRGITTFYWGQG
VL: B2 VL with Q48K, R51K, I64V, D66S, L79F, R83S, E85Q, F89I, V91T
notes: Humanized antibody with human constant region; also called anti-CD22 Mab clone VM1000
B5: VM1004 (antibody, V domains shown)
VH: B1 VH with Q1E, S17T, V20I, A24V
VL: B2 VL with Q48K, R51K
notes: Humanized antibody with human constant region; also called anti-CD22 Mab clone VM1004
B6: VM1002 (antibody, V domains shown)
VH: B3 VH with Q1E, A16E, V18L, K19R, V20I, A24G, R41P, R44G, I48M
VL: B2 VL
notes: Humanized antibody with human constant region; also called anti-CD22 Mab clone VM1002
B7: VM1003 (antibody, V domains shown)
VH: B1 VH with Q1E, S17T, V20I, A24V
VL: B2 VL
notes: Humanized antibody with human constant region; also called anti-CD22 Mab clone VM1003
B8: VM1001 (antibody, V domains shown)
VH: B4 VH
VL: B2 VL
notes: Humanized antibody with human constant region; also called anti-CD22 Mab clone VM1001

Each binder was assayed against T1, recombinant CD22 extracellular domain (assay: The sheet does not state the method. The column 'KD (nM)' stands beside the confocal data, and the target form is taken from FIGURE 18. FIGURE 18 prints 0.30 for this clone.).
T1 construct: Kept apart from m18, which is cell-surface CD22; also called CD22 (analyte in the BIAcore runs); CD22 ECD
Method: (§1) BIAcore 3000, GE Healthcare was used to determine binding curves and kinetic parameters. An anti-human Fc (1.8 mg/ml) was diluted to a concentration of 50 ug/ml in NaOAc buffer (10 mM, pH 4.8) and coupled to the carboxymethylated dextran matrix of a CM-5 sensor chip using the manufacturer's amine-coupling chemistry as described in the BIAcore systems manual. Using the surface preparation wizard aiming for 10000RU, the carboxyl groups on the sensor surfaces were first activated with NHS/EDC followed by the addition of the anti-human Fc. The remaining activated groups were blocked by the injection of 1M ethanolamine. Each of the flow cells was coupled individually. Employing these conditions, the four flow cell surfaces containing 7554-9571 RU of anti-human Fc were prepared. In preliminary experiments, it was determine that three injections (15 ul at 30 ul/min) 100 mM H₃PO₄/0.05% CHAPS would efficiently remove the bound immunoglobulin and preserve the binding capacity of the immobilized anti-human Fc.
(§2) Experiments were performed on the BIAcore 3000 at 25° C. and a flow rate of 30 ul/min. […] Using the 1:1 model in BIAevaluation 4.1, both a local fit and global fit was done for both dissociation (kd, [s−1] and association (ka, [M⁻¹s⁻¹]) and the dissociation constant (KD, [M]) calculated (kd/ka).

| Binder | Kd [nM] |
| --- | --- |
| B1 | 2.7 |

What follows are binders tested against T1, recombinant CD22 extracellular domain (assay: The sheet does not state the method. The column 'KD (nM)' stands beside the confocal data, and the target form is taken from FIGURE 18. FIGURE 18 prints 0.25 for this clone.).
Method: as §1, §2

| Binder | Kd [nM] |
| --- | --- |
| B2 | 0.26 |

These binders were tested against T2, CD22 protein expressed on the surface of Daudi cells (human, UniProt P20273 20-847) (assay: confocal immunofluorescence, FITC-labelled antibody on Daudi cells).
T2 construct: whole, on cells; also called human CD22; cell surface CD22
T2 sequence (looked up): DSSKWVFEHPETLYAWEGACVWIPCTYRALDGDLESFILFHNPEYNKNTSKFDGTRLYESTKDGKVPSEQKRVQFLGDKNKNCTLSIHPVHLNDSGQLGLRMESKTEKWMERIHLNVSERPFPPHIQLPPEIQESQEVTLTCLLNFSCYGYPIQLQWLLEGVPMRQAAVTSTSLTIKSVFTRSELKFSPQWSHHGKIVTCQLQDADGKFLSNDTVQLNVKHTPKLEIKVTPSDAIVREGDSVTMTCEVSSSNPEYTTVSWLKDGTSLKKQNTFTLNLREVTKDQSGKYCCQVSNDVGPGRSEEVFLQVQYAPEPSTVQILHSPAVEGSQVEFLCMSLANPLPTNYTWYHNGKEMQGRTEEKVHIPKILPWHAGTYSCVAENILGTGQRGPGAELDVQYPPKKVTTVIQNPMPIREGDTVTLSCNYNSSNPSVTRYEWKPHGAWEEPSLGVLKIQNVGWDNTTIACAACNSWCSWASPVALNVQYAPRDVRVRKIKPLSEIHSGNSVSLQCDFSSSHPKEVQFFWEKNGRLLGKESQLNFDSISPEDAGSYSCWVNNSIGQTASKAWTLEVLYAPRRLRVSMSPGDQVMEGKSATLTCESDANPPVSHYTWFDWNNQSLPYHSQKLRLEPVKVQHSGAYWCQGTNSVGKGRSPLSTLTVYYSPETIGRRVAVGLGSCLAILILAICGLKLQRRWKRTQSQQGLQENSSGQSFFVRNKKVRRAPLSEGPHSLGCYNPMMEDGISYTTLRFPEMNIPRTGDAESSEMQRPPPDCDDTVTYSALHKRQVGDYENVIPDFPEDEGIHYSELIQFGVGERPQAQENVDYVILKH
Method: Selected antiCD22 selected anti-CD22 Mab clones VM1000, VM1001, VM1002, VM1003, VM1004, VM1005, VM1006, VM1007, VM1008, VM1009, VM1010, VM1011, VM1012, VM1013, VM1014, and VM1015 of the invention were directly conjugated to F1TC using the Zenon labeling complex (Molecular Probes) using the manufacturer's recommended procedures. Approximately 1×10e7 Daudi cells were resuspended in PBS containing 5 ug/ml labeled anti-CD22 antibody and incubated for 45 minutes on ice. Cells then washed twice in PBS-FBS solution at 0 C. Cells were then incubated in RPMI 1640 media containing 10% FBS for varying periods at 37 C, harvested and washed in PBS at 0 C. The cells were then briefly fixed in 4% paraformaldehyde solution for 5 min at room temperature, then washed in PBS containing 0.05% Triton X-100. Cell pellets were collected by centrifugation and resupended in a minimal volume of FBS neat, and then applied to glass microscope slides. Prior to analysis, slides were treated with mounting fluid containing the nuclear stain DAPI, then coverslips were applied. Confocal images were recorded using an ACAS Ultima confocal microscope (Meridian Instruments, Inc., Okemos, Mich.) and represent 1-μm sections through the center of a focal plane using a 100× oil immersion objective.
The Anti-CD22 monoclonal antibodies selected clones VM1000, VM1001, VM1002, VM1003, VM1004, VM1005, VM1006, VM1007, VM1008, VM1009, VM1010, VM1011, VM1012, VM1013, VM1014, and VM1015 of the invention were analysed for their ability to be rapidly internalized into the intracellular compartment as judged by immunoflourescent signal on the cell surface versus the intracellular endo cytotic compartment. The antibodies of the invention were compared to BA006H, and humanized version of the murine monoclonal antibody LL2. In this example, FIG. 21A, the anti-CD22 antibodies of the invention bind to CD22 protein expressed on the surface of Daudi cells by approximately 20-fold compared to BA006H as judged by relative mean fluorescence (RMF), and are virtually completely internalized within the cell with 90 minutes, localizing predominantly to within the perinuclear golgi apparatus and associated lysozomes. Shown in FIG. 21B is a chart of the RMF surface binding values obtained in this manner for individual anti-CD22 antibodies of the invention.

| Binder | fold surface binding by relative mean fluorescence (RMF) compared to BA006H [fold] |
| --- | --- |
| B1 | ~20 |
| B3 | ~20 |
| B4 | ~20 |
| B5 | ~20 |
| B2 | ~20 |
| B6 | ~20 |
| B7 | ~20 |
| B8 | ~20 |
